Like-named read-outs stand apart in the source and are kept apart here.
Tests used:
human Y4 receptor [1] = target: T1, human Y4 receptor (human, UniProt P50391 1-375); assay: 125I-PP displacement
human Y4 receptor [2] = target: T1, human Y4 receptor; assay: 125I-PP displacement; remark: listed apart in the source

T1 sequence (P50391 whole entry): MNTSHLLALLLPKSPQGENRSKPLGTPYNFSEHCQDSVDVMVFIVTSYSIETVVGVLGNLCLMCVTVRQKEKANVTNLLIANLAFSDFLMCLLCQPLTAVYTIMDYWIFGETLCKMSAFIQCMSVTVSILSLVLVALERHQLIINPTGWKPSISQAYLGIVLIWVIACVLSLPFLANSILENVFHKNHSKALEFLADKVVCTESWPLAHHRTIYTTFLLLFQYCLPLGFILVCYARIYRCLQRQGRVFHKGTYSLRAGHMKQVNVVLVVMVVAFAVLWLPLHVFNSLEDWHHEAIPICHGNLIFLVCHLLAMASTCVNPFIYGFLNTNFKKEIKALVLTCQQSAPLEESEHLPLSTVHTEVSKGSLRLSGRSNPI

Binder | IC50 (human Y4 receptor [1]) [nM] | IC50 (human Y4 receptor [2]) [nM]
GAPLEPTYPGDDATPEQLAKYYSELRRYINKLTRPRY [4060313] | – | 0.097
AAPLEPKYPGDNATPEQLAKYAAELRRYIDKLTRPRY [4060696] | – | 0.151
GAPLEPEYPGDNATPEQKAKYAAALRRYIDKLTRPRY [4060601] | – | 0.088
GAPLEPTYPGDNATPEQKAKYAAELRRYIDKLTRPRY [4061080] | – | 0.105
4057255 (protein) CAPLEPVYPGDNATPEQMARYAADLRRYINKLTRPRYCAPLEPVYPGDNATPEQMARYAADLRRYINKLTRPRY | 0.22 | –
AAPLEPTAPGDNATPEQMARYAAALRRYINKLTRPRY [4060694] | – | 0.079
GAPLEPEYPGDDATPEQKARYAAALRRYINHLTRPRY [4060312] | – | 0.101
PAPLEPTYPGDNATPEQKAKYAAELRRYIDKLTRPRY [4061081] | – | 0.21
PAPLEPEYPGDNATPEQMAKYAADLRRYINKLTRPRY [4057232] | 0.128 | –
PAPLEPFYPGDNATPEQMAKYAADLRRYINKLTRPRY [4057233] | 0.13 | –
AAPLEPVYPGDNATPEQMARYAAELRRYINKLTRPRY [4057161] | 0.125 | –
PAPLEPVYPGDNATPEQDAKYAADLRRYINKLTRPRY [4057147] | 0.199 | –
PAPLEPTYPGDNATPEQMAKYAADLRRYINKLTRPRY [4057229] | 0.143 | –
PAPLEPTYPGDNATPEEMAKYAAELRRYINKLTRPRY [4057446] | 0.109 | –
PAPLEPTYPGDDATPEEMAKYAAELRRYINKLTRPRY [4057445] | 0.107 | –
PAPLEPTYPGDNATPEELAKYYSELRRYINKLTRPRY [4060316] | – | 0.101
PAPLEPHYPGDNATPEEMAKYAAELRRYIDKLTRPRY [4060687] | – | 0.171
GAPLEPTYPGDDATPEQLAKYAAELRRYINHLTRPRY [4060308] | – | 0.117
AAPLEPEYPGDDATPQQMAHYAAELRRYINKLTRPRY [4057141] | 0.114 | –
PAPLEPEYPGDDATPQQKARYAAELRRYINKLTRPRY [4060685] | – | 0.065
PAPLEPTYPGDDATPQEMAKYAAELRRYINKLTRPRY [4057444] | 0.116 | –
PAPLEPSYPGDDATPQQMAKYAAELRRYINKLTRPRY [4057442] | 0.101 | –
DAPLEPEYPGDDATPQQMARYAAELRRYINKLTRPRY [4057135] | 0.097 | –
PAPLEPEYPGDDATPQQMAHYAAELRRYINKLTRPRY [4057140] | 0.126 | –
HAPLEPEYPGDDATPQQMARYAAELRRYINKLTRPRY [4057137] | 0.092 | –
GAPLEPEYPGDDATPQQKARYAAELRRYINKLTRPRY [4060684] | – | 0.076
HPLEPEYPGDDATPQQMARYAAELRRYINKLTRPRY [4057275] | 0.162 | –
DPLEPEYPGDDATPQQMARYAAELRRYINKLTRPRY [4057277] | 0.093 | –
PLEPVYPGDNATPEQLAKYAAELRRYIDKLTRPRY [4060899] | – | 0.153

The remaining binders from weak to strong by IC50 (human Y4 receptor [1]), led by results:

IC50 (human Y4 receptor [1]) [nM] | IC50 (human Y4 receptor [2]) [nM] | Binder
0.089 | – | PAPLEPTYPGDNATPEQLAKYAAELRRYINKLTRPRY [4057440]
0.088 | – | GAPLEPVYPGDNATPEQMARYAAELRRYINKLTRPRY [4057163]
0.088 | – | PAPLEPEYPGDDATPQQLAKYAAELRRYINKLTRPRY [4057441]
0.086 | – | PLEPEYPGDDATPQQMAHYAAELRRYINKLTRPRY [4057138]
0.085 | – | APLEPVYPGDNATPEQMAKYYSELRRYINKLTRPRY [4057270]
0.085 | – | GPLEPEYPGDDATPQQMARYAAELRRYINKLTRPRY [4057276]
0.083 | – | PAPLEPVYPGDNATPEQIAKYAADLRRYINKLTRPRY [4057144]
0.083 | – | AAPLEPEYPGDDATPQQMAKYAADLRRYINKLTRPRY [4057259]
0.083 | – | APLEPEYPGDDATPQQMAKYAADLRRYINKLTRPRY [4057257]
0.082 | – | PLEPVYPGDNATPEQMARYAADLRRYINKLTRPRY [4057334]
0.08 | – | PAPLEPVYPGDNATPEQMARYAADLRRYINKLTRPRY [4057335]
0.08 | – | PAPLEPVYPGDNATPEQVAKYAADLRRYINKLTRPRY [4057146]
0.08 | – | PKPLEPEYPGDDATPQQMARYAAELRRYINKLTRPRY [4057279]
0.078 | – | HAPLEPVYPGDNATPEQMARYAADLRRYINKLTRPRY [4057338]
0.078 | – | PAPLEPEYPGDDATPQQMAKYAADLRRYINKLTRPRY [4057258]
0.078 | – | PAPLEPDYPGDDATPQQMAKYAAELRRYINKLTRPRY [4057443]
0.078 | – | APLEPEYPGDDATPQQMAHYAAELRRYINKLTRPRY [4057139]
0.073 | – | PLEPEYPGDDATPQQMAKYAADLRRYINKLTRPRY [4057256]
0.07 | – | PAPLEPVYPGDNATPEQLAKYAADLRRYINKLTRPRY [4057145]
0.069 | – | PAPLEPVYPGDNATPEQTAKYAADLRRYINKLTRPRY [4057148]
0.064 | – | GAPLEPEYPGDDATPQQMARYAAELRRYINKLTRPRY [4057136]
0.062 | – | AAPLEPVYPGDNATPEQMAKYYSELRRYINKLTRPRY [4057271]
0.061 | – | PAPLEPVYPGDDATPQQMAKYAADLRRYINKLTRPRY [4057273]
0.06 | – | PAPLEPVYPGDNATPEQMARYAAELRRYINKLTRPRY [4057162]
0.057 | – | PLEPEYPGDDATPQQMARYAAELRRYINKLTRPRY [4057153]
0.056 | – | PAPLEPVYPGDNATPEQMAKYAAELRRYINKLTRPRY [4057151]
0.056 | – | PLEPVYPGDNATPEQMAKYAADLRRYINKLTRPRY [4057261]
0.053 | – | PLEPVYPGDNATPEQMARYAAELRRYINKLTRPRY [4057159]
0.049 | – | PAPLEPHYPGDNATPEQMAKYAADLRRYINKLTRPRY [4057231]
0.049 | – | AKPLEPEYPGDDATPQQMARYAAELRRYINKLTRPRY [4057280]
